How the values were obtained:
[1] = target: NIA–Isu1 complex with C. thermophilum Isu1 (S. cerevisiae | E. coli (endogenous in the expression host) | C. thermophilum) (UniProt P25374); assay: pull-down; competition: Yah1^GST (2.5 μM) with NIA (5 μM), with or without Isu1Sc or Isu1Ct (7.5 μM), then Yfh1 WT or DE/KK added (12.5 μM or increasing concentrations); glutathione resin; densitometry, amount without Yfh1 set as 100%; buffer PD
[2] = target: Yah1-GST fusion protein (S. cerevisiae) (UniProt Q12184); assay: pull-down; GST-tagged Yah1 bait (2.5 μM) incubated with NIA (5 μM or increasing) and/or Isu1 (7.5 μM) in buffer PD (40 mM Hepes–KOH pH 7.5, 5% glycerol, 100 mM KCl, 1 mM DTT, 10 mM MgCl2) 15 min at 25 °C; glutathione agarose 1 h at 4 °C; SDS-PAGE, InstantBlue, densitometry corrected for binding to GST; aerobic (Yah1 cluster oxidised)
Chain of Yah1-GST fusion protein (S. cerevisiae) (Q12184 17-172): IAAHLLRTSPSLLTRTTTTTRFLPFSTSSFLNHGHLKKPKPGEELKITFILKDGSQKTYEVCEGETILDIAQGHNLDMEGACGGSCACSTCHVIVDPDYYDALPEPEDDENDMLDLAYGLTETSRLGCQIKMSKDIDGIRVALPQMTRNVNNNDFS

| Substance | percent of the control left pulled down with Yah1^GST at 5 μM Yfh1 [1] | percent reduction of Nfs1, Isd11 and Isu1 pulled down with Yah1^GST at a fivefold excess of Yfh1 (12.5 μM) [1] | binding as percent of the WT control [2] |
| --- | --- | --- | --- |
| Yfh1 (frataxin) with a C-terminal polyhistidine tag (from UniProt Q07540 52-174) (natural protein) | 30% | 85% |  |
| NIA–Isu1 complex containing Nfs1(R313E, R316E, R318E), with Isu1Ct (from UniProt P25374 37-497; Q6Q560 1-94; P0A6A8 1-78) |  |  | 20% |
| NIA–Isu1 complex containing Nfs1(R313A, R316A, R318A), with Isu1Ct (from UniProt P25374 37-497; Q6Q560 1-94; P0A6A8 1-78) |  |  | 30% |

Source: publication PMC8888459
